Measured values published in PMC5717261.

Biological target: Recombinant human MASP-2 (stabilized in a proenzyme form by mutation of the active site Ser 618 into Ala) (human)
Assay: SPR; BIAcore 3000, 25 °C; BMP-1, mTLL-1 or MASP-2 immobilised by amine coupling on CM5; C1q or MBL injected (60 µl, 20 µl/min) at several concentrations in 50 mM triethanolamine-HCl, 145 mM NaCl, 2 mM CaCl2, 0.005% surfactant P20, pH 7.4; global fit to a 1:1 Langmuir model; apparent KD from kd/ka

Chain of Recombinant human mannose-binding lectin (MBL) (P11226 21-248): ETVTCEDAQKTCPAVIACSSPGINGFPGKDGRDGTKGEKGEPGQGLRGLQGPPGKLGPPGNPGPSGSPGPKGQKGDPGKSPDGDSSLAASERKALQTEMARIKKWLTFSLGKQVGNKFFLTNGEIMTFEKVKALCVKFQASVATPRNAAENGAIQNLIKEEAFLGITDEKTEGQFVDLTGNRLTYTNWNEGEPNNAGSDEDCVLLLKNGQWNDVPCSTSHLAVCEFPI

Question: For “Recombinant human mannose-binding lectin (MBL) (from UniProt P11226 21-248) (natural protein)”, which Kd is on record?
Answer: 1.7 nM

Question: What about the koff of the same substance?
Answer: 0.00047 s⁻¹

Question: What about the kon of the same substance?
Answer: 280000 M⁻¹ s⁻¹
